The source of these data is patent US20070099822A1, “Regulation of tissue mineralization and phosphate metabolism by asarm peptides” (priority 2003, published 2007).

The target in one experiment is T1, chip-immobilized MEPE (Homo sapiens, UniProt Q9NQ76).
T1 construct: Purified protein contained N-terminal amino acid residues APTFQ confirming cleavage of predicted nascent-MEPE signal-peptide; made in house; host or cells: Spodoptera frugiperda (sf9) insect cells, baculovirus
T1 sequence (Q9NQ76 18-525): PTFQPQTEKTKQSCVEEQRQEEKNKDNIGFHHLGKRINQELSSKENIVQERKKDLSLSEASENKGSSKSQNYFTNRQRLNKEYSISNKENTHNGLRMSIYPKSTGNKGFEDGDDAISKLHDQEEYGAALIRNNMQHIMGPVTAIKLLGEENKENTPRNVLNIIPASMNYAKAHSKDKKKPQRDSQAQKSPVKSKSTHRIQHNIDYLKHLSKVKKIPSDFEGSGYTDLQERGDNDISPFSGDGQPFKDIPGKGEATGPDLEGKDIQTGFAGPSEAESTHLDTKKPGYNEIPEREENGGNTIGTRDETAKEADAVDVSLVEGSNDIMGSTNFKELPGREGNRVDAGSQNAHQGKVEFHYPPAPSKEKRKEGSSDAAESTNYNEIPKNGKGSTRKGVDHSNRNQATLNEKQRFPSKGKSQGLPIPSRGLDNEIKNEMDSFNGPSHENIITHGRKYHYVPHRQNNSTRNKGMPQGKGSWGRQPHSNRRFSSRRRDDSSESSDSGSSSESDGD
The experiment in a line: Surface plasmon resonance, secPHEX analyte on chip-immobilized MEPE. The format is binding. The source says: (§1) Surface Plasmon Resonance (SPR). A Biacore 3000 SPR instrument (Biacore, Piscataway, N.J.) in conjunction with CM5 research grade chips were used to conduct the Surface Plasmon Resonance (SPR) experiments, as previously described (Morgan, et al., A conserved clathrin assembly motif essential for synaptic vesicle endocytosis, J Neurosci 20(23):8667-8676, 2000; Morgan, et al., Uncoating of clathrin-coated vesicles in presynaptic terminals: Roles for Hsc70 and auxilin, Neuron 32(2):289-300, 200 1; Morgan, et al., Eps15 homology domain-NPF motif interactions regulate clathrin coat assembly during synaptic vesicle recycling, J Biol Chem 278(35):33583-33592, 2003). The experiments were performed at 25° C. using Biacore (Piscataway, N.J.) buffer (10 mM HEPES pH 7.4, 150 mM NaCl, 0.005% surfactant P20) supplemented with 2 mM ZnCl2 (HBS-P-Zn) or without ZnCl2 (HBS-P) as indicated. Injected samples also contained 2 mg/mL carboxymethyl-dextran to reduce non-specific association with the dextran matrix of the chip and a flow rate of 5 μL/min was used. The surfaces of research grade CM5 chips were activated by a 6 min injection of a solution containing 0.2M N-ethyl-N9-(dimethylaminopropyl) carbodiimide and 0.05M N-hydroxy-succinimide. MEPE, PHEX and IgG were immobilized on the same chip (ligands) in different individual flow-cells. Each chip contains four separate flow-cells, one cell was left blank as a negative control. The experiments were repeated on two different chips with 3500 RU (response-units) and 6000 RU of immobilized proteins respectively. The response unit or RU is a measure of surface charge density-oscillation and surface-plasmon-positron generation as detected by changes in incident refractive-index monitored by the Biacore optical unit. Specifically, 1000 RU unit equals a change of approximately 1 ng/mm^2 in surface protein concentration on the chip surface. After immobilization, each surface was blocked by a 6 min injection of 1 M ethanolamine at pH 8.5. […]

The next experiment concerns IgG. As to the kind of experiment: Surface plasmon resonance, secPHEX analyte on immobilized IgG. The experiment is classed as binding. Conditions: same chip. From the text:
(§2) Surface Plasmon Resonance (SPR). A Biacore 3000 SPR instrument (Biacore, Piscataway, N.J.) in conjunction with CM5 research grade chips were used to conduct the Surface Plasmon Resonance (SPR) experiments, as previously described (Morgan, et al., A conserved clathrin assembly motif essential for synaptic vesicle endocytosis, J Neurosci 20(23):8667-8676, 2000; Morgan, et al., Uncoating of clathrin-coated vesicles in presynaptic terminals: Roles for Hsc70 and auxilin, Neuron 32(2):289-300, 200 1; Morgan, et al., Eps15 homology domain-NPF motif interactions regulate clathrin coat assembly during synaptic vesicle recycling, J Biol Chem 278(35):33583-33592, 2003). The experiments were performed at 25° C. using Biacore (Piscataway, N.J.) buffer (10 mM HEPES pH 7.4, 150 mM NaCl, 0.005% surfactant P20) supplemented with 2 mM ZnCl2 (HBS-P-Zn) or without ZnCl2 (HBS-P) as indicated. Injected samples also contained 2 mg/mL carboxymethyl-dextran to reduce non-specific association with the dextran matrix of the chip and a flow rate of 5 μL/min was used. […] The response unit or RU is a measure of surface charge density-oscillation and surface-plasmon-positron generation as detected by changes in incident refractive-index monitored by the Biacore optical unit. […]
In general terms: SPR reads the build-up and loss of mass on a sensor chip optically.

The target in another experiment is T2, chip-immobilized secPHEX (Homo sapiens, UniProt P78562).
T2 construct: to generate a soluble, secreted form of PHEX; made in house; gift of Crine and Boileau, University of Montreal
T2 sequence (P78562 46-749 limits assumed): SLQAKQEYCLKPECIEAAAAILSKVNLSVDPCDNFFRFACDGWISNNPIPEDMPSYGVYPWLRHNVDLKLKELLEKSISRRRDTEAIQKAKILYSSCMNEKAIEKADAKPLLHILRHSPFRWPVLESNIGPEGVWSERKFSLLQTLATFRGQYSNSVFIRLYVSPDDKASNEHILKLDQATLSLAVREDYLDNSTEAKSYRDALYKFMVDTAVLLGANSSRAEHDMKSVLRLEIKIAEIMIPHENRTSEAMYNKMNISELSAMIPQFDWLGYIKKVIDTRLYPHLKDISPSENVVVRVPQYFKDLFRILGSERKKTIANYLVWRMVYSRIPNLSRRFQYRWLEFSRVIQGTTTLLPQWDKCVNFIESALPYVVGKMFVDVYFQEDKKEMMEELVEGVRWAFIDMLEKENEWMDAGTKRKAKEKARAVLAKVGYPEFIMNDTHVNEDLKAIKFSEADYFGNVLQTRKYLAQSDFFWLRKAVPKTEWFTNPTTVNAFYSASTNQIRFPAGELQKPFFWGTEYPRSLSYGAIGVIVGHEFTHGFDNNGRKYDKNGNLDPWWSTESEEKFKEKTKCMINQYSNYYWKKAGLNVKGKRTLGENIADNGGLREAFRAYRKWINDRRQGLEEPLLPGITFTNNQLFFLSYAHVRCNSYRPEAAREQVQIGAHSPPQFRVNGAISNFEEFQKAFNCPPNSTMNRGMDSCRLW
As to the kind of experiment: Surface plasmon resonance, secPHEX analyte on immobilized secPHEX. Conditions: 2 uM secPHEX. The experiment is classed as binding.
Description: as §2

Experiment [1] deals with T3, full-length insect-expressed human-MEPE (Hu-MEPE) (human, UniProt Q9NQ76 18-525).
T3 construct: also called recombinant Hu-MEPE; Matrix Extracellular Phosphoglycoprotein
T3 sequence: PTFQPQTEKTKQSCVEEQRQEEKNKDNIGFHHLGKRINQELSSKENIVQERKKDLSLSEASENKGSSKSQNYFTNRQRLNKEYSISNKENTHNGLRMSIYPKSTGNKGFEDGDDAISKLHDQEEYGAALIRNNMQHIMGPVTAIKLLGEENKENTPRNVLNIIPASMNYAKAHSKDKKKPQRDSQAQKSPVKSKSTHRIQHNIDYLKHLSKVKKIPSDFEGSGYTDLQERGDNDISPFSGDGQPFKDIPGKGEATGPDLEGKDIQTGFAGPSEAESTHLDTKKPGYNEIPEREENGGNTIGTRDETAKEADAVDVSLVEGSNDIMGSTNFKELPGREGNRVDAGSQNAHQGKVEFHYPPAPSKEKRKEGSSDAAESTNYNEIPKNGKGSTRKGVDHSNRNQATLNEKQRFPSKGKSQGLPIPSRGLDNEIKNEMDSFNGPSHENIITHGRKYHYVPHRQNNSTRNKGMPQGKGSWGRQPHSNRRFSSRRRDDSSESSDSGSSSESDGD
The experiment in a line: SPR (Biacore 3000), MEPE immobilized on CM5 at 3500 RU, secPHEX analyte, HBS-P-Zn (2 mM ZnCl2). How it is done: as §1, with “The” for “Surface Plasmon Resonance (SPR). A Biacore 3000 SPR instrument (Biacore, Piscataway, N.J.) in conjunction with CM5 research grade chips were used to conduct the Surface Plasmon Resonance (SPR) experiments, as previously described (Morgan, et al., A conserved clathrin assembly motif essential for synaptic vesicle endocytosis, J Neurosci 20(23):8667-8676, 2000; Morgan, et al., Uncoating of clathrin-coated vesicles in presynaptic terminals: Roles for Hsc70 and auxilin, Neuron 32(2):289-300, 200 1; Morgan, et al., Eps15 homology domain-NPF motif interactions regulate clathrin coat assembly during synaptic vesicle recycling, J Biol Chem 278(35):33583-33592, 2003). The”, “ZnCl₂” for “ZnCl2”, “ng/mm²” for “ng/mm^2”

Entries after “also recorded” stand apart in the source; their conditions may differ.

B1: mammalian expressed human recombinant secreted PHEX (secPHEX) (enzyme, UniProt P78562 46-749, looked up)
chain: SLQAKQEYCLKPECIEAAAAILSKVNLSVDPCDNFFRFACDGWISNNPIPEDMPSYGVYPWLRHNVDLKLKELLEKSISRRRDTEAIQKAKILYSSCMNEKAIEKADAKPLLHILRHSPFRWPVLESNIGPEGVWSERKFSLLQTLATFRGQYSNSVFIRLYVSPDDKASNEHILKLDQATLSLAVREDYLDNSTEAKSYRDALYKFMVDTAVLLGANSSRAEHDMKSVLRLEIKIAEIMIPHENRTSEAMYNKMNISELSAMIPQFDWLGYIKKVIDTRLYPHLKDISPSENVVVRVPQYFKDLFRILGSERKKTIANYLVWRMVYSRIPNLSRRFQYRWLEFSRVIQGTTTLLPQWDKCVNFIESALPYVVGKMFVDVYFQEDKKEMMEELVEGVRWAFIDMLEKENEWMDAGTKRKAKEKARAVLAKVGYPEFIMNDTHVNEDLKAIKFSEADYFGNVLQTRKYLAQSDFFWLRKAVPKTEWFTNPTTVNAFYSASTNQIRFPAGELQKPFFWGTEYPRSLSYGAIGVIVGHEFTHGFDNNGRKYDKNGNLDPWWSTESEEKFKEKTKCMINQYSNYYWKKAGLNVKGKRTLGENIADNGGLREAFRAYRKWINDRRQGLEEPLLPGITFTNNQLFFLSYAHVRCNSYRPEAAREQVQIGAHSPPQFRVNGAISNFEEFQKAFNCPPNSTMNRGMDSCRLW
notes: Gift from Crine and Boileau; Used as SPR analyte and also immobilized as ligand; also called soluble mammalian expressed PHEX
Regarding B1, the “binding of secPHEX to MEPE in buffer lacking ZnCl2” value with chip-immobilized MEPE (HBS-P, secPHEX up to 10 uM) is given as “No interaction”. Further, the “binding of secPHEX to MEPE” value in the experiment with chip-immobilized MEPE (HBS-P-Zn buffer, saturation at 10 uM secPHEX) is listed as “dose dependent”. For the same molecule, in the experiment with chip-immobilized MEPE (MEPE 3500 RU), the “Bmax of secPHEX binding to immobilized MEPE” value is 680 RU. For the same molecule, the “interaction of secPHEX with control IgG” value in the experiment with IgG is “no significant signals; also recorded: No interaction”. Further, the “interaction of secPHEX analyte with chip-immobilized secPHEX” value in the experiment with chip-immobilized secPHEX is on record as “very low-level barely-detectable autologous-interaction”. Moreover, in experiment [1], the concentration giving a half-maximal response (EC50) – broadly, the concentration that produces a half-maximal response – turned out to be 553 nM.
